Reference: patent US20090111745A1
Like-named read-outs stand apart in the source and are kept apart here.

Legend:
[1] = biological target: human serum albumin (human) (UniProt P02768); experiment: sandwich ELISA, HSA coated at 10 µg/ml, control at 1 µM, detection with anti-FITC antibody
[2] = biological target: human serum albumin (human) (UniProt P02768)
[3] = biological target: interleukin-1 type 1 receptor (human) (UniProt P14778); experiment: cell-based or functional assay
Sequence of interleukin-1 type 1 receptor (human) (P14778 18-569): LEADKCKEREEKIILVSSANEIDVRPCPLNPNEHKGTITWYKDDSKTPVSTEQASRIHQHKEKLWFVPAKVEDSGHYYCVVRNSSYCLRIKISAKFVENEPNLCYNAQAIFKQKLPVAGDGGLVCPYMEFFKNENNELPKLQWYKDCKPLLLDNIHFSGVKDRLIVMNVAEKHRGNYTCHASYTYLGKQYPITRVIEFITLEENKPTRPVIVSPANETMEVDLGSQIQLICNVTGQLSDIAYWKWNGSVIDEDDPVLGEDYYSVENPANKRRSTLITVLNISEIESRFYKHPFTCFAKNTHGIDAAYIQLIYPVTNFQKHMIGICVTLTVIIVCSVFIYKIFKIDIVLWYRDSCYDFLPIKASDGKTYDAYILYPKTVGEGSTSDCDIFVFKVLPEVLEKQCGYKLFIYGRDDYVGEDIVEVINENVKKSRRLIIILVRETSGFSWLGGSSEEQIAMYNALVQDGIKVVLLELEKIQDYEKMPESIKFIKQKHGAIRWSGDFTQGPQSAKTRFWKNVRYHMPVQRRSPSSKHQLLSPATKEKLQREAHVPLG

Sequence of recombinant human IL-1ra (R&D systems) (P18510 other isoform, or with tags, fused parts or gaps): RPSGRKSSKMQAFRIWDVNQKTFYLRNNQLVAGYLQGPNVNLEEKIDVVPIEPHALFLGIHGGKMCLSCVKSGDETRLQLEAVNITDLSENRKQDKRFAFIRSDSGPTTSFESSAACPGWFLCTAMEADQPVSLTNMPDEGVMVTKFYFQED
Sequence of uncoupled saporin (enzyme) (P20656 25-277): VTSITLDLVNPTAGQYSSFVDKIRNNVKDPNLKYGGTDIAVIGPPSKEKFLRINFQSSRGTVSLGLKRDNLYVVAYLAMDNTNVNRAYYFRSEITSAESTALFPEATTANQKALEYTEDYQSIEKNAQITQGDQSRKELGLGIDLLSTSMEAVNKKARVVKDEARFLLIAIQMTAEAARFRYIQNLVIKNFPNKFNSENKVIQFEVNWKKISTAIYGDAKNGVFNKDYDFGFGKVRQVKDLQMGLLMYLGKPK

control FITC coupled antibody
OD600 [1]: 0.049 OD600

uncoupled saporin (enzyme)
OD600 [2]: 0.079 OD600

recombinant human IL-1ra (R&D systems) (from UniProt P18510 26-176) (ligand)
ND50 (neutralizing dose 50), IL-1-induced IL-8 secretion by MRC-5 cells [3]: 0.5 nM
